In the first test the target is HLA-B*3501.
Experiment: not given
Take FINVPEWSY (modifications not checked) [… (SEQ ID NO: 10)]: the ELISA (Absorption-Pass/Fail Control) was found to be 0.57 absorption.
Still for that read-out and setting: in the case of LVKSDQICI (modifications not checked) [… (SEQ ID NO: 29)] it was 0.04 absorption; in that of SLVKSDQIC (modifications not checked) [… (SEQ ID NO: 16)], -0.03 absorption; in that of HANNSTEQV (modifications not checked) [… (SEQ ID NO: 17)], 0.43 absorption.
Still for that read-out and setting: in the case of LFAIVSLVK (modifications not checked) [… (SEQ ID NO: 40)] it was 0.1 absorption; in that of LGNPMCDEF (modifications not checked) [… (SEQ ID NO: 43)], 0.35 absorption; in that of AGWLLGNPM (modifications not checked) [… (SEQ ID NO: 42)], -0.06 absorption.

The target in another test is HLA-B*3501. Kind of test: MHC-peptide assembly over 24 h, ELISA with conformational antibody; reading minus pass/fail control. Background: In an ELISA, binding on a coated surface is turned into a signal by an enzyme label.
For HPVGEADYFEY (modifications not checked) [… (SEQ ID NO: 8)], the ELISA (Absorption-Pass/Fail Control) amounted to 0.55 absorption.

For the next test, the target named is HLA-B*0801.
Experiment: not given
GNPMCDEFI (modifications not checked) [… (SEQ ID NO: 39)] yielded an ELISA (Absorption-Pass/Fail Control) of 0.04 absorption.
Same read-out and setting: in the case of VAGWLLGNP (modifications not checked) [… (SEQ ID NO: 37)] it was 0.04 absorption; in that of DILEKKHNG (modifications not checked) [… (SEQ ID NO: 34)], 0.53 absorption.
The molecule KPLILRDCS (modifications not checked) [… (SEQ ID NO: 35)] gave an ELISA (Absorption-Pass/Fail Control) of 0.1 absorption.
Take PLILRDCSV (modifications not checked) [… (SEQ ID NO: 36)]: the ELISA (Absorption-Pass/Fail Control) was found to be 0.65 absorption.
Regarding DTIMEKNVT (modifications not checked) [… (SEQ ID NO: 32)], the ELISA (Absorption-Pass/Fail Control) worked out at 0.08 absorption.
On the same count and under the same terms, to WLLGNPMCD (modifications not checked) [… (SEQ ID NO: 38)] belongs 0.03 absorption; to VTHAQDILE (modifications not checked) [… (SEQ ID NO: 33)], 0.31 absorption.
As for ILEKKHNGK (modifications not checked) [… (SEQ ID NO: 28)], the ELISA (Absorption-Pass/Fail Control) was found to be 0.95 absorption.
On to VSLVKSDQI (modifications not checked) [… (SEQ ID NO: 31)], for which the ELISA (Absorption-Pass/Fail Control) is 0.36 absorption.
The molecule LILRDCSVA (modifications not checked) [… (SEQ ID NO: 23)] came in with an ELISA (Absorption-Pass/Fail Control) of 0.07 absorption.
The same measure, in the same setting: to TIMEKNVTV (modifications not checked) [… (SEQ ID NO: 18)] belongs 0.8 absorption; to NVTVTHAQD (modifications not checked) [… (SEQ ID NO: 27)], 0.08 absorption.

The next test addresses HLA-A*0201.
Experiment: not given
On to PMCDEFINV (modifications not checked) [… (SEQ ID NO: 24)], for which the ELISA (Absorption-Pass/Fail Control) was found to be 0.98 absorption.
Same read-out and setting: to NVPEWSYIV (modifications not checked) [… (SEQ ID NO: 25)] belongs 1.03 absorption; to IMEKNVTVT (modifications not checked) [… (SEQ ID NO: 19)], 0.02 absorption.
The same measure, in the same setting: in the case of MEKNVTVTH (modifications not checked) [… (SEQ ID NO: 20)] it was -0.02 absorption.
On the same count and under the same terms, in the case of FAIVSLVKS (modifications not checked) [… (SEQ ID NO: 13)] it was 0.07 absorption; in that of AIVSLVKSD (modifications not checked) [… (SEQ ID NO: 14)], 0.43 absorption; in that of LLFAIVSLV (modifications not checked) [… (SEQ ID NO: 12)], 1.06 absorption.
For the molecule IVSLVKSDQ (modifications not checked) [… (SEQ ID NO: 15)], the ELISA (Absorption-Pass/Fail Control) turned out to be 0.04 absorption.
On the same count and under the same terms, to KLCDLDGVK (modifications not checked) [… (SEQ ID NO: 22)] belongs 0.2 absorption; to SLVKSDQIC (modifications not checked) [… (SEQ ID NO: 16)], 0.09 absorption.
Still for that read-out and setting: in the case of HANNSTEQV (modifications not checked) [… (SEQ ID NO: 17)] it was 0.43 absorption; in that of AQDILEKKH (modifications not checked) [… (SEQ ID NO: 21)], 0.15 absorption.
Still for that read-out and setting: in the case of LILRDCSVA (modifications not checked) [… (SEQ ID NO: 23)] it was 0.57 absorption; in that of VLLFAIVSL (modifications not checked) [… (SEQ ID NO: 11)], 0.47 absorption; in that of TIMEKNVTV (modifications not checked) [… (SEQ ID NO: 18)], 0.99 absorption.

A further test has as its target HLA-A*0101.
Experiment: not given
Regarding KSDQICIGY (modifications not checked) [… (SEQ ID NO: 9)], the ELISA (Absorption-Pass/Fail Control) was determined as 0.47 absorption.
Same read-out and setting: in the case of FINVPEWSY (modifications not checked) [… (SEQ ID NO: 10)] it was 0.16 absorption.

In the next test the target is HLA-B*0702.
Experiment: not given
For the molecule LVKSDQICI (modifications not checked) [… (SEQ ID NO: 29)], the ELISA (Absorption-Pass/Fail Control) was -0.06 absorption.
Still for that read-out and setting: to TIMEKNVTV (modifications not checked) [… (SEQ ID NO: 18)] belongs 0 absorption; to ILRDCSVAG (modifications not checked) [… (SEQ ID NO: 30)], 0.03 absorption.

Another test concerns the target HLA-A*0301.
Experiment: not given
KSDQICIGY (modifications not checked) [… (SEQ ID NO: 9)] displayed an ELISA (Absorption-Pass/Fail Control) of 0.05 absorption.
Still for that read-out and setting: in the case of KLCDLDGVK (modifications not checked) [… (SEQ ID NO: 22)] it was 1.16 absorption.
Consider ILEKKHNGK (modifications not checked) [… (SEQ ID NO: 28)], for which the ELISA (Absorption-Pass/Fail Control) was -0.01 absorption.
On the same count and under the same terms, in the case of NVTVTHAQD (modifications not checked) [… (SEQ ID NO: 27)] it was -0.04 absorption.

These data come from patent US20070197446A1, “MHC binding peptides and their uses” (ProImmune Limited, priority 2006, published 2007).
